Earlier results on one substance are cited in paper PMC2888693.

The target of this series is Tube DD (Drosophila melanogaster) (UniProt P22812).
UniProt P22812, sequence (P22812 27-152): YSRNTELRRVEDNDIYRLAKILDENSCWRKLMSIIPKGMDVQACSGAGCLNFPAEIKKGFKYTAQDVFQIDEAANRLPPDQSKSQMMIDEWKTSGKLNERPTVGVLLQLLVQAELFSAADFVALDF

The Kd is the free concentration of one partner at which half of the binding sites on the other are occupied at equilibrium, for simple one-to-one binding. In the case of Pelle DD (from UniProt Q05652), the Kd is 0.5 µM.
